Assay [1] concerns Hepa1-6/hGPC3 cancer cells. Nature of the assay: Syngeneic mouse model: pre-administration of MR-16-1 and drug efficacy of GC33/2C11. The assay is classed as in vivo, C57BL/6 mice. On the procedure:
In a test using a syngeneic mouse model, a study for evaluating the effect of pre-administration of an anti-mouse IL6 receptor antibody, MR-16-1 (see Okazaki M, et al., Characterization of anti-mouse interleukin-6 receptor antibody, Immunol Lett. 2002 Dec. 3; 84(3):231-40; and Saito T, et al., Preparation of soluble murine IL-6 receptor and anti-murine IL-6 receptor antibodies, J. Immunol., 47 (1991), pp. 168-173), on the drug efficacy of ERY974 surrogate antibodies was carried out as follows. Hepa1-6/hGPC3 cancer cells, which are mouse cancer cell line Hepa1-6 made to highly express human GPC3, were transplanted subcutaneously in C57BL/6 mice. The day of transplantation was set to day 0. On day 18, grouping was performed according to tumor size and body weight. MR-16-1 was administered into the tail vein at 30 mg/kg on day 18. On day 19, the day after MR-16-1 administration, GC33/2C11 was administered into the tail vein at 0.2 and 5 mg/kg. MR-16-1 was administered six times in total (on days 18, 21, 25, 28, 32 and day 35). GC33/2C11 was administered once, only on day 19. GC33/2C11 was an antibody comprising the amino acid sequence of SEQ ID NO: 443 as the GPC3-side heavy chain, the amino acid sequence of SEQ ID NO: 444 as the GPC3-side light chain, the amino acid sequence of SEQ ID NO: 445 as the CD3-side heavy chain, and the amino acid sequence of SEQ ID NO: 446 as the CD3-side light chain.

Assay [2] deals with Hepa1-6/hGPC3 cancer cells. The experiment in a line: Syngeneic mouse model: post-administration of MR-16-1 and drug efficacy of GC33/2C11. The assay is classed as in vivo, C57BL/6 mice. Here is the method:
In a study using a syngeneic mouse model, a study for evaluating the effect of post-administration of an anti-mouse IL6 receptor antibody, MR-16-1, on the drug efficacy of ERY974 surrogate antibodies was carried out as follows. Hepa1-6/hGPC3 cancer cells, which are mouse cancer cell line Hepa1-6 made to highly express human GPC3, were transplanted subcutaneously in C57BL/6 mice. The day of transplantation was set to day 0. On day 16, grouping was performed according to tumor size and body weight. On day 17, GC33/2C11 was first administered into the tail vein at 0.2 or 5 mg/kg, and two hours later, MR-16-1 was administered into the tail vein at 30 mg/kg. MR-16-1 was administered six times in total (on days 17, 21, 24, 28, 31, and day 35). GC33/2C11 was administered once, only on day 17.

Consider 1 molecule from patent publication US20220348658A1, “ANTI-T CELL ANTIGEN-BINDING MOLECULE TO BE USED IN COMBINATION WITH CYTOKINE INHIBITOR” (Chugai Seiyaku Kabushiki Kaisha, priority 2019, published 2022).

B1: GC33/2C11: ERY974 surrogate antibody; GPC3-side chains SEQ ID NO: 443/444, CD3-side chains SEQ ID NO: 445/446 (protein)
chain 1: QVQLVQSGAEVKKPGASVKVSCKASGYTFTDYEMHWIRQPPGQGLEWIGAIDPKTGDTAYSQKFKGRVTLTADKSTSTAYMELSSLTSEDTAVYYCTRFYSYTYWGQGTLVTVSSAKTTPPSVYPLAPGSAAQTNSMVTLGCLVKGYFPEPVTVTWNSGSLSSGVHTFPAVLQSDLYTLSSSVTVPSSTWPSETVTCNVAHPASSTKVDKKIVPRDCGCKPCICTVKEVSKVFIFPPKPKDVLTITLTPKVTCVVVDISKDDPEVQFSWFVDDVEVHTAQTQPREEQFNSTFRSVSELPIMHQDWLNGKEFKCRVNSAAFPAPIEKTISKTKGRPKAPQVYTIPPPKEQMAKDKVSLTCMITDFFPEDITVEWQWNGQPAENYKNTQPIMDTDGSYFVYSELNVQKSNWEAGNTFTCSVLHEGLHNHHTEKSLSHSPGK
chain 2: DIVMTQSPLSLPVTPGEPASISCRSSQSLVHSNRNTYLHWYQQKPGQAPRLLIYKVSNRFSGVPDRFSGSGSGTDFTLKISRVEAEDVGVYYCSQNTHVPPTFGQGTKLEIKRADAAPTVSIFPPSSEQLTSGGASVVCFLNNFYPKDINVKWKIDGSERQNGVLNSWTDQDSKDSTYSMSSTLTLTKDEYERHNSYTCEATHKTSTSPIVKSFNRNEC
chain 3: EVQLVESGGGLVQPGKSLKLSCEASGFTFSGYGMHWVRQAPGRGLESVAYITSSSINIKYADAVKGRFTVSRDNAKNLLFLQMNILKSEDTAMYYCARFDWDKNYWGQGTMVTVSSAKTTPPSVYPLAPGSAAQTNSMVTLGCLVKGYFPEPVTVTWNSGSLSSGVHTFPAVLQSDLYTLSSSVTVPSSTWPSETVTCNVAHPASSTKVDKKIVPRDCGCKPCICTVKEVSKVFIFPPKPKDVLTITLTPKVTCVVVDISKDDPEVQFSWFVDDVEVHTAQTQPREEQFNSTFRSVSELPIMHQDWLNGKEFKCRVNSAAFPAPIEKTISKTKGRPKAPQVYTIPPPKEQMAKDKVSLTCMITDFFPEDITVEWQWNGQPAENYKNTQPIMRTDGSYFVYSKLNVQKSNWEAGNTFTCSVLHEGLHNHHTEKSLSHSPGK
chain 4: DIQMTQSPSSLPASLGDRVTINCQASQDISNYLNWYQQKPGKAPKLLIYYTNKLADGVPSRFSGSGSGRDSSFTISSLESEDIGSYYCQQYYNYPWTFGPGTKLEIKRADAAPTVSIFPPSSEQLTSGGASVVCFLNNFYPKDINVKWKIDGSERQNGVLNSWTDQDSKDSTYSMSSTLTLTKDEYERHNSYTCEATHKTSTSPIVKSFNRNEC
modifications: H0000-mF18mN4; GL4-mk1; 2C11VH-mF18mP4; 2C11VL-mk1
As to B1, the “Antitumor activity (%)” value amounted to 80% in assay [1] (Group 2: GC33/2C11 0.2 mg/kg tail vein, day 19, alone); 110% in assay [1] (Group 3: GC33/2C11 5 mg/kg tail vein, day 19, alone); 99% in assay [1] (Group 5: GC33/2C11 0.2 mg/kg day 19 after pre-administration of MR-16-1 (30 then 15 mg/kg, day 18, 21, 25, 28, 32, 35)); 107% in assay [1] (Group 6: 5 mg/kg day 19 after pre-administration of MR-16-1 (30 then 15 mg/kg, day 18, 21, 25, 28, 32, 35)); 102% in assay [2] (Group 2: GC33/2C11 0.2 mg/kg tail vein, day 17, alone); 109% in assay [2] (Group 3: GC33/2C11 5 mg/kg tail vein, day 17, alone). For the same molecule, the “Antitumor activity (%)” value in assay [2] (Group 5: GC33/2C11 0.2 mg/kg day 17, 2 hours before MR-16-1 (30 then 15 mg/kg, day 17, 21, 24, 28, 31, 35)) amounted to 103%; in assay [2] (Group 6: 5 mg/kg day 17, 2 hours before MR-16-1 (30 then 15 mg/kg, day 17, 21, 24, 28, 31, 35)) it was 109%.
